Where two headings read alike, the source gives them in different places.
Key:
[1] = biological target: T1, CD25 on the surface of CTLL-2 cells (mouse cytotoxic T lymphocyte cell line) (mouse) (UniProt P01590); experiment: cell-based or functional assay
T1 sequence (looked up): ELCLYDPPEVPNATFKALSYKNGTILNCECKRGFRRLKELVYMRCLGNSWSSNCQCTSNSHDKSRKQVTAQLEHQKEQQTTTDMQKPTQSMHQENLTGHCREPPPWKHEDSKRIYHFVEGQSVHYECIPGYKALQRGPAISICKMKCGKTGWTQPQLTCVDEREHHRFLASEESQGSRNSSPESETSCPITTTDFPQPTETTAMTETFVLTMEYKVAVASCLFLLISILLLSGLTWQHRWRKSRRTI

[2] = biological target: CD25 on the surface of NK92 cells (human NK cell line) (human) (UniProt P01589); experiment: cell-based or functional assay
[3] = biological target: T2, CD25 on the surface of CTLL-2 cells (mouse cytotoxic T lymphocyte cell line) (mouse, UniProt P01590 22-268); experiment: cell-based or functional assay
T2 sequence (looked up): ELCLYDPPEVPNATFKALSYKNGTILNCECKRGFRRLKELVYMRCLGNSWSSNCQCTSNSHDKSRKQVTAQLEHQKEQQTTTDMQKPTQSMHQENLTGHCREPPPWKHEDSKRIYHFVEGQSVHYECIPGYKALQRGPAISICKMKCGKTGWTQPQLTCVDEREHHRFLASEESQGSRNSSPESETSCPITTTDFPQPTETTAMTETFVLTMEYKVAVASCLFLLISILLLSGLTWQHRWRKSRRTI

[4] = biological target: T3, CD25 protein (from Example 2); experiment: ELISA on coated CD25
T3 chain: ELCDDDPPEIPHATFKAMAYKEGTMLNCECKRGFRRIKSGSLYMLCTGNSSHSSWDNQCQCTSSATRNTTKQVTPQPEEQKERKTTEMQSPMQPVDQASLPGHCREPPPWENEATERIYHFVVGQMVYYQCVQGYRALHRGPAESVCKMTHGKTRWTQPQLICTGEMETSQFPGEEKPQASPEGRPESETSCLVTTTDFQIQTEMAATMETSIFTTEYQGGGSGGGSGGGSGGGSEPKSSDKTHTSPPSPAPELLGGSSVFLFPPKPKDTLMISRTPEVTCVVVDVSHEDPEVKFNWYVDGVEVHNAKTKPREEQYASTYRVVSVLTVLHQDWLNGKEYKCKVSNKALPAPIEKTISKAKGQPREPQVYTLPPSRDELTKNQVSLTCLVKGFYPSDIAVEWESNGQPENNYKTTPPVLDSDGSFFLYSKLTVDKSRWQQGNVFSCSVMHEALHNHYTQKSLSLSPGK
Protocol: (§1) CD25 (from Example 2) was coated on a 96-well high adsorption microtiter plate (3590, Costar), washed and blocked. The sample to be tested was diluted to an appropriate concentration and added to wells.

[5] = biological target: T3, CD25 protein (from Example 2); experiment: ELISA on coated CD25, sample at 1 ug/ml, relative to rhIL-2 = 100%
Protocol: as §1

[6] = biological target: T3, CD25 protein (from Example 2); experiment: ELISA on coated CD25, sample at 0.2 ug/ml, relative to rhIL-2 = 100%
Protocol: as §1

[7] = biological target: T4, CD25 on the surface of NK92 cells (human NK cell line) (human, UniProt P01589 22-272); experiment: cell-based or functional assay
T4 sequence (looked up): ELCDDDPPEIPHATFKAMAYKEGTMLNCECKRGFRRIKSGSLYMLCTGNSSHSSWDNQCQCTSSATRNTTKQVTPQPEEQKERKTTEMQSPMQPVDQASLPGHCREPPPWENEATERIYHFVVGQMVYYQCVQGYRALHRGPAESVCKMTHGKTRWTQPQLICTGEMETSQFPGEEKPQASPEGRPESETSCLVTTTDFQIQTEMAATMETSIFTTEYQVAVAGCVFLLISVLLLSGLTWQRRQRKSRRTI

[8] = biological target: T3, CD25 protein (from Example 2); experiment: ELISA on coated CD25, sample at 0.04 ug/ml, relative to rhIL-2 = 100%
Protocol: as §1

[9] = biological target: T2, CD25 on the surface of CTLL-2 cells …; experiment: cell-based or functional assay; remark: listed apart in the source
[10] = biological target: T4, CD25 on the surface of NK92 cells …; experiment: cell-based or functional assay; remark: listed apart in the source

Row | Binder | EC50 (nM), CTLL-2 cell proliferation [1] [nM] | Potency relative to rhIL-2 (%), CTLL-2 cell proliferation [1] [%] | EC50 (nM), NK92 cell proliferation [2] [nM] | Potency relative to rhIL-2 (%), NK92 cell proliferation [2] [%] | EC50 (nM), CTLL-2 cell proliferation [3] [nM] | Potency relative to rhIL-2 (%), CTLL-2 cell proliferation [3] [%] | binding result [4] | Binding activity (%) [5] [%] | Binding activity (%) [6] [%] | EC50 (nM), NK92 cell proliferation [7] [nM] | Potency relative to rhIL-2 (%), NK92 cell proliferation [7] [%] | Binding activity (%) [8] [%] | Potency relative to rhIL-2 (%), CTLL-2 cell proliferation [9] [%] | EC50 (nM), NK92 cell proliferation [10] [nM] | Potency relative to rhIL-2 (%), NK92 cell proliferation [10] [%]
1 | IL-2gm4 (T3A, K49N, A73T), IgG1-Fc tag (Fc fusion) APASSSTKKTQLQLEHLLLDLQMILNGINNYKNPKLTRMLTFKFYMPKNATELKHLQCLEEELKPLEEVLNLTQSKNFHLRPRDLISNINVIVLELKGSETTFMCEYADETATIVEFLNRWITFAQSIISTLTGGGSGGGSGGGSGGGSEPKSSDKTHTSPPSPAPELEGGSSVFLFPPKPKDTLMISRTPEVTCVVVDVSHEDPEVKFNWYVDGVEVHNAKTKPREEQYASTYRVVSVLTVLHQDWLNGKAYACAVSNKALPAPIEKTISKAKGQPREPQVYTLPPSREEMTKNQVSLTCLVKGFYPSDIAVEWESNGQPENNYKTTPPVLDSDGSFFLYSKLTVDKSRWQQGNVFSCSVMHEALHNHYTQKSLSLSPGK | 0.00919 | 31.5 | 0.0152 | 34.8 |  |  |  |  |  |  |  |  |  |  | 
2 | IL-2gm5 (T3A, M39N, K49N, A73T), HIS tag (ligand, Expressed in Expi293F cells; also called IL-2gm5-His) APASSSTKKTQLQLEHLLLDLQMILNGINNYKNPKLTRNLTFKFYMPKNATELKHLQCLEEELKPLEEVLNLTQSKNFHLRPRDLISNINVIVLELKGSETTFMCEYADETATIVEFLNRWITFAQSIISTLTHHHHHH |  |  |  |  | 8.22 | 0.035 | no binding (tested: 1 ug/ml) | 0.88 | 1.08 | 20.7 | 0.009 | 1.51 |  |  | 
3 | IL-2gm15 (T3A, M39N, K49N, D109N), HIS tag (ligand, Expressed in Expi293F cells; also called IL-2gm15-His) APASSSTKKTQLQLEHLLLDLQMILNGINNYKNPKLTRNLTFKFYMPKNATELKHLQCLEEELKPLEEVLNLAQSKNFHLRPRDLISNINVIVLELKGSETTFMCEYANETATIVEFLNRWITFAQSIISTLTHHHHHH |  |  |  |  | 16.5 | 0.018 | no binding (tested: 1 ug/ml) | 0.68 | 0.99 | 7.76 | 0.025 | 1.36 |  |  | 
4 | IL-2gm9 (T3A, M39N, A73T), HIS tag (ligand, Expressed in Expi293F cells; also called IL-2gm9-His) APASSSTKKTQLQLEHLLLDLQMILNGINNYKNPKLTRNLTFKFYMPKKATELKHLQCLEEELKPLEEVLNLTQSKNFHLRPRDLISNINVIVLELKGSETTFMCEYADETATIVEFLNRWITFAQSIISTLTHHHHHH |  |  |  |  | 2.38 | 0.122 | no binding (tested: 1 ug/ml) | 0.88 | 1.18 | 1.07 | 0.181 | 1.51 |  |  | 
5 | IL-2gm10 (T3A, M39N, D109N), HIS tag (ligand, Expressed in Expi293F cells; also called IL-2gm10-His) APASSSTKKTQLQLEHLLLDLQMILNGINNYKNPKLTRNLTFKFYMPKKATELKHLQCLEEELKPLEEVLNLAQSKNFHLRPRDLISNINVIVLELKGSETTFMCEYANETATIVEFLNRWITFAQSIISTLTHHHHHH |  |  |  |  | 15.6 | 0.019 | no binding (tested: 1 ug/ml) | 0.88 | 1.08 | 12.7 | 0.015 | 1.51 |  |  | 
6 | IL-2gm8 (T3A, M39N, K49N), HIS tag (ligand, Expressed in Expi293F cells; also called IL-2gm8-His) APASSSTKKTQLQLEHLLLDLQMILNGINNYKNPKLTRNLTFKFYMPKNATELKHLQCLEEELKPLEEVLNLAQSKNFHLRPRDLISNINVIVLELKGSETTFMCEYADETATIVEFLNRWITFAQSIISTLTHHHHHH |  |  |  |  | 8.84 | 0.033 | no binding (tested: 1 ug/ml) | 0.74 | 0.99 | 8.91 | 0.022 | 1.51 |  |  | 
7 | IL-2gm14 (T3A, M39N, A73T, D109N), HIS tag (ligand, Expressed in Expi293F cells; also called IL-2gm14-His) APASSSTKKTQLQLEHLLLDLQMILNGINNYKNPKLTRNLTFKFYMPKKATELKHLQCLEEELKPLEEVLNLTQSKNFHLRPRDLISNINVIVLELKGSETTFMCEYANETATIVEFLNRWITFAQSIISTLTHHHHHH |  |  |  |  | 47.9 | 0.006 | no binding (tested: 1 ug/ml) | 0.74 | 0.99 | 23.2 | 0.008 | 1.51 |  |  | 
8 | IL-2gm5 (T3A, M39N, K49N, A73T), IgG1-Fc tag (Fc fusion) APASSSTKKTQLQLEHLLLDLQMILNGINNYKNPKLTRNLTFKFYMPKNATELKHLQCLEEELKPLEEVLNLTQSKNFHLRPRDLISNINVIVLELKGSETTFMCEYADETATIVEFLNRWITFAQSIISTLTEPKSSDKTHTSPPSPAPELEGGSSVFLFPPKPKDTLMISRTPEVTCVVVDVSHEDPEVKFNWYVDGVEVHNAKTKPREEQYASTYRVVSVLTVLHQDWLNGKAYACAVSNKALPAPIEKTISKAKGQPREPQVYTLPPSREEMTKNQVSLTCLVKGFYPSDIAVEWESNGQPENNYKTTPPVLDSDGSFFLYSKLTVDKSRWQQGNVFSCSVMHEALHNHYTQKSLSLSPGK | 0.173 | 1.68 | 0.0711 | 7.42 |  |  |  |  |  |  |  |  |  |  | 
9 | IL-2gm6 (T3A, M39N, K49N, A73T, D109N), IgG1-Fc tag (Fc fusion) APASSSTKKTQLQLEHLLLDLQMILNGINNYKNPKLTRNLTFKFYMPKNATELKHLQCLEEELKPLEEVLNLTQSKNFHLRPRDLISNINVIVLELKGSETTFMCEYANETATIVEFLNRWITFAQSIISTLTEPKSSDKTHTSPPSPAPELEGGSSVFLFPPKPKDTLMISRTPEVTCVVVDVSHEDPEVKFNWYVDGVEVHNAKTKPREEQYASTYRVVSVLTVLHQDWLNGKAYACAVSNKALPAPIEKTISKAKGQPREPQVYTLPPSREEMTKNQVSLTCLVKGFYPSDIAVEWESNGQPENNYKTTPPVLDSDGSFFLYSKLTVDKSRWQQGNVFSCSVMHEALHNHYTQKSLSLSPGK | 5.95 | 0.049 | 0.824 | 0.641 |  |  |  |  |  |  |  |  |  |  | 
10 | IL-2qm (T3A, F42A, Y45A, L72G), IgG1-Fc tag (Fc fusion, copies 2 rests on that; also called IL-2qm-Fc; Rocheglicat (CN103492411B)) APASSSTKKTQLQLEHLLLDLQMILNGINNYKNPKLTRMLTAKFAMPKKATELKHLQCLEEELKPLEEVLNGAQSKNFHLRPRDLISNINVIVLELKGSETTFMCEYADETATIVEFLNRWITFAQSIISTLTEPKSSDKTHTSPPSPAPELEGGSSVFLFPPKPKDTLMISRTPEVTCVVVDVSHEDPEVKFNWYVDGVEVHNAKTKPREEQYASTYRVVSVLTVLHQDWLNGKAYACAVSNKALPAPIEKTISKAKGQPREPQVYTLPPSREEMTKNQVSLTCLVKGFYPSDIAVEWESNGQPENNYKTTPPVLDSDGSFFLYSKLTVDKSRWQQGNVFSCSVMHEALHNHYTQKSLSLSPGK |  |  |  |  |  |  | no binding (tested: 1 ug/ml) | 0.74 | 0.99 |  |  | 1.51 | 0 | 0.306 | 1.73

From patent US20220227829A1 (SHANGHAI GP BIOTECH, published 2022)
